Molecular target: the molecule itself
Assay: MALDI-TOF mass spectrometry; top-down analysis of purified MSMB3 without any reduction or alkylation

B1: chicken beta-microseminoprotein 3 (MSMB3), proteoform lacking the C-terminal glycine, MSMB3(-G) (natural protein, chicken (Gallus gallus))
chain: RCYFRTSSKYGCISNRNLYVFGAVWKTEDCYQCKCKMNAMVCCSLVSIPKNYDRVNCVGLFHKKSCSIRVVKKTDPDISCKVYNGV
modifications: five disulfide bridges (C2-C43, C12-C35, C30-C66, C33-C42, C57-C80); delta mass of -1 Da on two lysines, especially K63 (potential oxidation of the lysine residue)
notes: chicken (Gallus gallus) MSMB3, mature protein without its C-terminal G87 (major proteoform of the purified sample, residues 1-86); numbers count on: the mature protein; The dimer seen by mass spectrometry and the crystal structure are of MSMB3(-G); the NMR sample is called only MSMB3; also called Gga-MSMB3; Gga-MSMB3 without G
In the case of B1, the “stoichiometry N” value is reported as 2.

— article PMC8167871, “Three‐dimensional structures of avian beta‐microseminoproteins: insight from the chicken egg‐specific beta‐microseminoprotein 3 paralog” (FEBS Open Bio, 2021)
